Test results taken from patent US11034759B2, “Humanized M-CSF specific monoclonal antibodies, kits, and uses thereof” (NOVARTIS VACCINES AND DIAGNOSTICS, INC., priority 2004, dated 2021).

T1: MCSF (Homo sapiens, UniProt P09603)
T1 sequence (P09603 33-255 limits assumed): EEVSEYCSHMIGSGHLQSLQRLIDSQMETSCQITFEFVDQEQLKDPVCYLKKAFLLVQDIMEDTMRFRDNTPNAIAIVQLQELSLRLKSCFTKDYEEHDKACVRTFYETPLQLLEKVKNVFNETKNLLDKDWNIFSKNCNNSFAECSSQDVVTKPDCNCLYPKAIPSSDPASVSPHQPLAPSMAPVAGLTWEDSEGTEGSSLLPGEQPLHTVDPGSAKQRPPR


Target: T1, MCSF
Assay: Biacore analysis of Human Engineered RX1 antibodies, M-CSF immobilized (Example 13)
Type: binding
Settings: Table 11, 25° C.
Experimental: To determine the relative differences in the binding affinity of intact antibodies by Biacore analysis, M-CSF was immobilized onto CMS biosensor chip via amine coupling. 0.05 μg/ml M-CSF in 10 mM Na-Acetate pH 4.0 was injected at 1 μl/min for 5 minutes to achieve RL=6-12 RU. Test antibody or Fab fragments were flowed over the modified biosensor surface at varying concentrations ranging from 100 nM to 1.5 nM in 2-fold dilutions. Test antibodies were diluted in 0.01 M HEPES pH 7.4, 0.15 M NaCL, 3 mM EDTA, 0.005% Surfactant P20 (HBS-EP) and all experiments were done at 25° C. Each concentration point and buffer blanks were run in triplicate, and data was collected over 3 minutes of association and 8 minutes of dissociation. Kinetic and affinity constants were determined using Biaevaluation software with a 1:1 interaction model/global fit.

| ka [M⁻¹ s⁻¹] | kd [s⁻¹] | Molecule |
| --- | --- | --- |
| 152000 | 0.00148 | heRX1-8.G2: Human Engineered RX1: light chain Low + Mod Risk (Kabat) − RAT 54, 55, 56 to SIS, heavy chain Low + Mod Risk (Kabat), Gamma 2 (antibody, V domains shown) VH: QVQLQESGPGLVKPSQTLSLTCTVSDYSITSDYAWNWIRQFPGKGLEWMGYISYSGSTSYNPSLKSRITISRDTSKNQFSLQLNSVTAADTAVYYCASFDYAHAMDYWGQGTTVTVSS VL: EIVLTQSPGTLSVSPGERVTFSCRASQSIGTSIHWYQQKTGQAPRLLIKYASESISGIPDRFSGSGSGTDFTLTISRVESEDFADYYCQQINSWPTTFGQGTKLEIK |
| 157000 | 0.00149 | heRX1-7.G2: Human Engineered RX1: light chain Low + Mod Risk (Kabat) − RAT54, 55, 56 to SIS, heavy chain Low Risk (Kabat), Gamma 2 (antibody, V domains shown) VH: DVQLQESGPGLVKPSQTLSLTCTVTDYSITSDYAWNWIRQFPGKKLEWMGYISYSGSTSYNPSLKSRITISRDTSKNQFSLQLNSVTAADTATYYCASFDYAHAMDYWGQGTTVTVSS VL: EIVLTQSPGTLSVSPGERVTFSCRASQSIGTSIHWYQQKTGQAPRLLIKYASESISGIPDRFSGSGSGTDFTLTISRVESEDFADYYCQQINSWPTTFGQGTKLEIK |
| 175000 | 0.00129 | heRX1-5.G2: Human Engineered RX1: light chain Low Risk (Kabat) − R54 to S, heavy chain Low Risk (Kabat), Gamma 2 (antibody, left off: a dimerising Fc or GST) heavy: DVQLQESGPGLVKPSQTLSLTCTVTDYSITSDYAWNWIRQFPGKKLEWMGYISYSGSTSYNPSLKSRITISRDTSKNQFSLQLNSVTAADTATYYCASFDYAHAMDYWGQGTTVTVSS light: EIVLTQSPGTLSVSPGERVTFSCRASQSIGTSIHWYQQKTGQSPRLLIKYASESISGIPDRFSGSGSGTDFTLTISRVESEDFADYYCQQINSWPTTFGQGTKLEIKRT |

Second part, the molecule before the results:

| Molecule | ka [M⁻¹ s⁻¹] | kd [s⁻¹] |
| --- | --- | --- |
| heRX1-4.G2: Human Engineered RX1: light chain Low + Mod Risk (Kabat), heavy chain Low + Mod Risk (Kabat), Gamma 2 (antibody, left off: a dimerising Fc or GST) heavy: QVQLQESGPGLVKPSQTLSLTCTVSDYSITSDYAWNWIRQFPGKGLEWMGYISYSGSTSYNPSLKSRITISRDTSKNQFSLQLNSVTAADTAVYYCASFDYAHAMDYWGQGTTVTVSS light: EIVLTQSPGTLSVSPGERVTFSCRASQSIGTSIHWYQQKTGQAPRLLIKYASERATGIPDRFSGSGSGTDFTLTISRVESEDFADYYCQQINSWPTTFGQGTKLEIKRT | 238000 | 0.00108 |
| heRX1-2.G2: Human Engineered RX1: light chain Low Risk (Kabat), heavy chain Low + Mod Risk (Kabat), Gamma 2 (antibody, left off: a dimerising Fc or GST) heavy: QVQLQESGPGLVKPSQTLSLTCTVSDYSITSDYAWNWIRQFPGKGLEWMGYISYSGSTSYNPSLKSRITISRDTSKNQFSLQLNSVTAADTAVYYCASFDYAHAMDYWGQGTTVTVSS light: EIVLTQSPGTLSVSPGERVTFSCRASQSIGTSIHWYQQKTGQSPRLLIKYASERISGIPDRFSGSGSGTDFTLTISRVESEDFADYYCQQINSWPTTFGQGTKLEIKRT | 218000 | 0.00165 |
